Like-named read-outs stand apart in the source and are kept apart here.
Key:
U373MG cells = experiment: Internalization and surface binding in U373MG cells; type: cell-based, human; conditions: for total cell uptake: 37 °C, 2.5 pmol peptide per well, % of total activity per well, triplicates; for receptor specific cell uptake: total minus nonspecific (10000 fold excess unlabeled SP)
Procedure: All the main cell studies were performed on U373MG human Glioblastoma cell lines. Cells were cultured in DMEM was supplemented with L-glutamine, antibiotics (penicillin, streptomycine, gentamycine) and10% FBS. They were grown in culture until a sufficient number of cells were available. At proper times, cells were detached by trypsin-EDTA (0.25% and 0.02%) from the culture flask and diluted with fresh medium to start a new culture or the cell line tests.
Internalization of the ^99mTclabeled HYNIC-Tyr^8-Met(O)^11-SP was studied as previously described method([32], [33]) with some modifications. In brief, newly detached U373MG cells were seeded in six-well plates 12 h before the experiment. Their culture medium was replaced by 1.2 mL of previously warmed fresh medium and cells were allowed to adjust to the medium for 1 h at 37 °C, 5% CO2. In order to determine nonspecific internalization, one line of wells per plate was incubated with 10000 fold excess of unlabeled SP (25 nmol peptide in 150 μL PBS per well) at 37°C/5% CO2 for 15 min to block NK1Rs. Then about 150kBq (2.5 pmol peptide) in 150 μL diluted solution of freshly radiolabeled peptide was added to each of the wells and were incubated (in triplicates) for 0.5, 1, 2 and 4 h at 37 °C/5% CO2, respectively. As the final volume of blocked wells was 1.5 mL, the content volume of unblocked wells was adjusted to 1.5 mL by adding 150 μL PBS per well. At each time point, radioactive media were aspirated and wells were washed twice with cold PBS (1x, pH 7.2) to remove free radio peptides. After that, cells were treated with 1 mLGly buffer (0.2M, pH adjusted to 2.8 with 1 M HCl) at room temperature for 5 min (twice) to remove cell-surface bound radio peptide. Finally, the cells were detached from the plates by three steps incubation with 1N NaOH at room temperature for 5 min to determine the internalized radio peptide. All consequent fractions were measured with a NaI γ-counter and results were expressed as percentage of total activity per well (free + cell-surface bound + internalized). Nonspecific accumulations were subtracted from totals to determine the specific accumulations.

[1] = Biodistribution in normal mice; type: in vivo; conditions: for tissue uptake at 1 h / tissue uptake at 4 h / tissue uptake at 24 h: male, mouse, iv, total radioactivity
Procedure: Male albino mice in a weight range of18-24 g were used for normal mice treatments and malenude mice (6 to 8 weeks old) were used for in-vivo tumor treatments. The mice were housed at controlled room temperature (25 °C) in a 12 h light/12 h dark schedule. They were kept in standard cages with free access to food and water except during the experiments. The nude mice were grown and kept in isolated sterile condition. All animal experiments were carried out in compliance with our institutional ethical guidelines.
Freshly labeled ^99mTc-HYNIC-Tyr^8-Met(O)^11-SP (purity>98%) was diluted to 3.3 nmol/mL with normal saline and a dose of 800 µCi/ 330 pmol in 100 µL was injected to each mouse via the tail vein. Also agroup of three animals (blocked group) were given150 µg of SP in 50 µL salineco-injected with the radiopeptide to determine the non-specific biodistribution of the radiopeptide by blocking the receptor-positive organs. After 1, 4, and 24 h post injection the mice in groups of three animals were sacrificed and organs of interest were excised. All organs and tissues were weighed, and the radioactivity was determined by gamma counter. Results were expressed as percentage of injected dose per gram (% ID/g) of tissue.

Structure (SMILES): CC(C)C[C@H](NC(=O)CNC(=O)[C@H](Cc1ccc(O)cc1)NC(=O)[C@H](Cc1ccccc1)NC(=O)[C@H](CCC(N)=O)NC(=O)[C@H](CCC(N)=O)NC(=O)[C@@H]1CCCN1C(=O)[C@H](CCCCN)NC(=O)[C@@H]1CCCN1C(=O)[C@H](CCCNC(=N)N)NC(=O)c1ccc(NN)nc1)C(=O)N[C@@H](CC[S+](C)[O-])C(N)=O (some centres unmarked) [^99mTc-HYNIC-Tyr^8-Met(O)^11-SP, metal not drawn]
- total cell uptake (U373MG cells; 0.5 h): 2.86 ± 0.10%
- receptor specific cell uptake (U373MG cells; 0.5 h): 1.71%
- total cell uptake (U373MG cells; 4 h): 4.91 ± 0.22%
- receptor specific cell uptake (U373MG cells; 4 h): 2.98%
- ratio of specific uptake to total uptake (U373MG cells; over 0.5-4 h): 60.21 ± 1.19%
- %ID/g Blood ([1]; Blood, 1 h p.i., i.v., mean ± SEM, n=3): 1.02±0.16 %ID/g
- %ID/g Blood ([1]; Blood, 4 h p.i., i.v., mean ± SEM, n=3): 0.36±0.03 %ID/g
- D% Blood ([1]; Blood, decreased percent of %ID/g between 1 h and 4 h): 65%
- %ID/g Bone ([1]; Bone, 1 h p.i., i.v., mean ± SEM, n=3): 0.44±0.03 %ID/g
- D% Bone ([1]; Bone, decreased percent of %ID/g between 1 h and 4 h): 55%
- D% Heart ([1]; Heart, decreased percent of %ID/g between 1 h and 4 h): 68%
- D% Kidneys ([1]; Kidneys, decreased percent of %ID/g between 1 h and 4 h): 35%
- %ID/g L. intestine ([1]; L. intestine, 1 h p.i., i.v., mean ± SEM, n=3): 1.14±0.09 %ID/g
- %ID/g L. intestine ([1]; L. intestine, 4 h p.i., i.v., mean ± SEM, n=3): 1.33±0.28 %ID/g
- %ID/g L. intestine ([1]; L. intestine, 24 h p.i., i.v., mean ± SEM, n=3): 0.37±0.06 %ID/g
- D% L. intestine ([1]; L. intestine, decreased percent of %ID/g between 1 h and 4 h): -17%
- %ID/g Liver ([1]; Liver, 1 h p.i., i.v., mean ± SEM, n=3): 0.58±0.04 %ID/g
- %ID/g Liver ([1]; Liver, 4 h p.i., i.v., mean ± SEM, n=3): 0.38±0.05 %ID/g
- %ID/g Liver ([1]; Liver, 24 h p.i., i.v., mean ± SEM, n=3): 0.16±0.02 %ID/g
- D% Liver ([1]; Liver, decreased percent of %ID/g between 1 h and 4 h): 34%
- %ID/g Lung ([1]; Lung, 1 h p.i., i.v., mean ± SEM, n=3): 0.94±0.19 %ID/g
- %ID/g Lung ([1]; Lung, 4 h p.i., i.v., mean ± SEM, n=3): 0.33±0.02 %ID/g
- %ID/g Lung ([1]; Lung, 24 h p.i., i.v., mean ± SEM, n=3): 0.17±0.04 %ID/g
- D% Lung ([1]; Lung, decreased percent of %ID/g between 1 h and 4 h): 65%
- %ID/g Muscle ([1]; Muscle, 1 h p.i., i.v., mean ± SEM, n=3): 0.32±0.07 %ID/g
- D% Muscle ([1]; Muscle, decreased percent of %ID/g between 1 h and 4 h): 72%
- %ID/g S. intestine ([1]; S. intestine, 1 h p.i., i.v., mean ± SEM, n=3): 2.13±0.17 %ID/g
- %ID/g S. intestine ([1]; S. intestine, 4 h p.i., i.v., mean ± SEM, n=3): 0.89±0.21 %ID/g
- %ID/g S. intestine ([1]; S. intestine, 24 h p.i., i.v., mean ± SEM, n=3): 0.24±0.04 %ID/g
- D% S. intestine ([1]; S. intestine, decreased percent of %ID/g between 1 h and 4 h): 58%
- %ID/g Salivary G. ([1]; Salivary G., 1 h p.i., i.v., mean ± SEM, n=3): 0.61±0.05 %ID/g
- D% Salivary G. ([1]; Salivary G., decreased percent of %ID/g between 1 h and 4 h): 57%
- D% Spleen ([1]; Spleen, decreased percent of %ID/g between 1 h and 4 h): 30%
- D% Stomach ([1]; Stomach, decreased percent of %ID/g between 1 h and 4 h): 75%
- tissue uptake at 1 h ([1]; albino, 330 pmol per mouse, Stomach, 1 h p.i., i.v., mean ± SEM, n=3, read-out: %ID/g Stomach): 1.57 ± 0.13 %ID/g
- tissue uptake at 4 h ([1]; albino, 330 pmol per mouse, Stomach, 4 h p.i., i.v., mean ± SEM, n=3, read-out: %ID/g Stomach): 0.39 ± 0.06 %ID/g
- tissue uptake at 24 h ([1]; albino, 330 pmol per mouse, Stomach, 24 h p.i., i.v., mean ± SEM, n=3, read-out: %ID/g Stomach): 0.15 ± 0.01 %ID/g
- tissue uptake at 4 h ([1]; albino, salivary gland, 330 pmol per mouse, Salivary G., 4 h p.i., i.v., mean ± SEM, n=3, read-out: %ID/g Salivary G.): 0.26 ± 0.02 %ID/g
- tissue uptake at 24 h ([1]; albino, salivary gland, 330 pmol per mouse, Salivary G., 24 h p.i., i.v., mean ± SEM, n=3, read-out: %ID/g Salivary G.): 0.2 ± 0.02 %ID/g
- tissue uptake at 24 h ([1]; 800 uCi (330 pmol) per mouse, Blood, 24 h p.i., i.v., mean ± SEM, n=3, read-out: %ID/g Blood): 0.14 ± 0.02 %ID/g
- tissue uptake at 4 h ([1]; 800 uCi (330 pmol) per mouse, Bone, 4 h p.i., i.v., mean ± SEM, n=3, read-out: %ID/g Bone): 0.2 ± 0.02 %ID/g
- tissue uptake at 24 h ([1]; 800 uCi (330 pmol) per mouse, Bone, 24 h p.i., i.v., mean ± SEM, n=3, read-out: %ID/g Bone): 0.07 ± 0.03 %ID/g
- tissue uptake at 1 h ([1]; 800 uCi (330 pmol) per mouse, Heart, 1 h p.i., i.v., mean ± SEM, n=3, read-out: %ID/g Heart): 0.55 ± 0.14 %ID/g
- tissue uptake at 4 h ([1]; 800 uCi (330 pmol) per mouse, Heart, 4 h p.i., i.v., mean ± SEM, n=3, read-out: %ID/g Heart): 0.17 ± 0.01 %ID/g
- tissue uptake at 24 h ([1]; 800 uCi (330 pmol) per mouse, Heart, 24 h p.i., i.v., mean ± SEM, n=3, read-out: %ID/g Heart): 0.06 ± 0.04 %ID/g
- tissue uptake at 1 h ([1]; 800 uCi (330 pmol) per mouse, Kidneys, 1 h p.i., i.v., mean ± SEM, n=3, read-out: %ID/g Kidneys): 21.2 ± 0.7 %ID/g
- tissue uptake at 4 h ([1]; 800 uCi (330 pmol) per mouse, Kidneys, 4 h p.i., i.v., mean ± SEM, n=3, read-out: %ID/g Kidneys): 13.8 ± 1.96 %ID/g
- tissue uptake at 24 h ([1]; 800 uCi (330 pmol) per mouse, Kidneys, 24 h p.i., i.v., mean ± SEM, n=3, read-out: %ID/g Kidneys): 5.47 ± 0.56 %ID/g
- tissue uptake at 4 h ([1]; 800 uCi (330 pmol) per mouse, Muscle, 4 h p.i., i.v., mean ± SEM, n=3, read-out: %ID/g Muscle): 0.09 ± 0.03 %ID/g
- tissue uptake at 24 h ([1]; 800 uCi (330 pmol) per mouse, Muscle, 24 h p.i., i.v., mean ± SEM, n=3, read-out: %ID/g Muscle): 0.04 ± 0.02 %ID/g
- tissue uptake at 1 h ([1]; 800 uCi (330 pmol) per mouse, Spleen, 1 h p.i., i.v., mean ± SEM, n=3, read-out: %ID/g Spleen): 0.4 ± 0.09 %ID/g
- tissue uptake at 4 h ([1]; 800 uCi (330 pmol) per mouse, Spleen, 4 h p.i., i.v., mean ± SEM, n=3, read-out: %ID/g Spleen): 0.28 ± 0.06 %ID/g
- tissue uptake at 24 h ([1]; 800 uCi (330 pmol) per mouse, Spleen, 24 h p.i., i.v., mean ± SEM, n=3, read-out: %ID/g Spleen): 0.13 ± 0.08 %ID/g

— PMC4277623, “Synthesis and Preliminary Evaluation of a New ^99mTc Labeled Substance P Analogue as a Potential Tumor Imaging Agent” (Iranian Journal of Pharmaceutical Research : IJPR, 2015)
